Reference: the supplement of paper PMC9112550, “Optimization of the antimicrobial peptide Bac7 by deep mutational scanning” (BMC Biology, 2022)

System: Escherichia coli TOP10
Test: shrunken log2 fold change of peptide-encoding DNA abundance (4.5 h post-induction vs induction); higher = less antimicrobial activity (less host growth inhibition)
Settings: time post-induction: 4.5 h; library: site-saturation at positions 5, 18, 19, 20
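Note: peptides expressed intracellularly from a pBAD plasmid library in pooled LB shake-flask culture, induced with 0.3% L-arabinose, DNA abundance read by NGS, three biological replicates, DESeq2 with apeglm shrinkage.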

Sequence | shrunken log2 fold change
RRIRARPPRLPRPRPRPQCFPRP | 0.1
RRIRARPPRLPRPRPRPQCYPRP | -0.0761
RRIRARPPRLPRPRPRPQDRPRP | -0.139
RRIRARPPRLPRPRPRPQEGPRP | -0.0912
RRIRARPPRLPRPRPRPQEKPRP | -0.0334
RRIRARPPRLPRPRPRPQENPRP | 0.394
RRIRARPPRLPRPRPRPQETPRP | 0.0762
RRIRARPPRLPRPRPRPQGHPRP | 0.273
RRIRARPPRLPRPRPRPQGMPRP | 0.233
RRIRARPPRLPRPRPRPQHPPRP | 0.29
RRIRARPPRLPRPRPRPQIIPRP | 0.0561
RRIRARPPRLPRPRPRPQISPRP | -0.051
RRIRARPPRLPRPRPRPQIWPRP | 0.166
RRIRARPPRLPRPRPRPQKHPRP | 0.0336
RRIRARPPRLPRPRPRPQKMPRP | -0.000461
RRIRARPPRLPRPRPRPQKWPRP | 0.301
RRIRARPPRLPRPRPRPQNTPRP | -0.286
RRIRARPPRLPRPRPRPQPFPRP | -0.0268
RRIRARPPRLPRPRPRPQPMPRP | 0.229
RRIRARPPRLPRPRPRPQRNPRP | -0.0146
RRIRARPPRLPRPRPRPQSQPRP | -0.0155
RRIRARPPRLPRPRPRPQVQPRP | 0.0275
RRIRARPPRLPRPRPRPQWGPRP | 0.315
RRIRARPPRLPRPRPRPQYEPRP | 0.181
RRIRARPPRLPRPRPRPRAWPRP | 0.699

Sequence | shrunken log2 fold change
RRIRARPPRLPRPRPRPRCLPRP | 0.157
RRIRARPPRLPRPRPRPRCTPRP | 0.392
RRIRARPPRLPRPRPRPRCYPRP | 0.0779
RRIRARPPRLPRPRPRPRDCPRP | 0.391
RRIRARPPRLPRPRPRPRFTPRP | 0.267
RRIRARPPRLPRPRPRPRGFPRP | 0.604
RRIRARPPRLPRPRPRPRGHPRP | 0.644
RRIRARPPRLPRPRPRPRGQPRP | 0.666
RRIRARPPRLPRPRPRPRHSPRP | -0.00589
RRIRARPPRLPRPRPRPRHYPRP | -0.158
RRIRARPPRLPRPRPRPRKHPRP | 0.146
RRIRARPPRLPRPRPRPRKMPRP | 0.521
RRIRARPPRLPRPRPRPRLAPRP | 1.53
RRIRARPPRLPRPRPRPRLNPRP | 0.316
RRIRARPPRLPRPRPRPRMGPRP | 0.692
RRIRARPPRLPRPRPRPRNFPRP | -0.0153
RRIRARPPRLPRPRPRPRPDPRP | 0.819
RRIRARPPRLPRPRPRPRQIPRP | 0.313
RRIRARPPRLPRPRPRPRQLPRP | 0.449
RRIRARPPRLPRPRPRPRRAPRP | 0.831
RRIRARPPRLPRPRPRPRRVPRP | 1.36
RRIRARPPRLPRPRPRPRSAPRP | 0.681
RRIRARPPRLPRPRPRPRTMPRP | 0.403
RRIRARPPRLPRPRPRPRTNPRP | 0.329
RRIRARPPRLPRPRPRPRWQPRP | 0.361

Sequence | shrunken log2 fold change
RRIRARPPRLPRPRPRPSAAPRP | 0.848
RRIRARPPRLPRPRPRPSAQPRP | 0.96
RRIRARPPRLPRPRPRPSARPRP | 0.479
RRIRARPPRLPRPRPRPSASPRP | 0.167
RRIRARPPRLPRPRPRPSEEPRP | 0.452
RRIRARPPRLPRPRPRPSEQPRP | 0.248
RRIRARPPRLPRPRPRPSFFPRP | 0.238
RRIRARPPRLPRPRPRPSKFPRP | -0.163
RRIRARPPRLPRPRPRPSLHPRP | 0.162
RRIRARPPRLPRPRPRPSLMPRP | 0.0307
RRIRARPPRLPRPRPRPSMNPRP | -0.032
RRIRARPPRLPRPRPRPSMSPRP | -0.105
RRIRARPPRLPRPRPRPSNEPRP | 0.167
RRIRARPPRLPRPRPRPSPRPRP | 0.818
RRIRARPPRLPRPRPRPSQDPRP | 0.196
RRIRARPPRLPRPRPRPSRFPRP | 0.125
RRIRARPPRLPRPRPRPSSEPRP | 0.271
RRIRARPPRLPRPRPRPSTAPRP | 0.482
RRIRARPPRLPRPRPRPSTIPRP | -0.273
RRIRARPPRLPRPRPRPSTTPRP | 0.363
RRIRARPPRLPRPRPRPSTYPRP | -0.356
RRIRARPPRLPRPRPRPSVHPRP | -0.0906
RRIRARPPRLPRPRPRPSWLPRP | 0.0254
RRIRARPPRLPRPRPRPSYIPRP | -0.647
RRIRARPPRLPRPRPRPSYYPRP | -0.731

Sequence | shrunken log2 fold change
RRIRARPPRLPRPRPRPTCDPRP | 0.534
RRIRARPPRLPRPRPRPTCFPRP | 0.57
RRIRARPPRLPRPRPRPTCKPRP | 0.0463
RRIRARPPRLPRPRPRPTDAPRP | 0.607
RRIRARPPRLPRPRPRPTDGPRP | 0.0971
RRIRARPPRLPRPRPRPTDRPRP | 0.0653
RRIRARPPRLPRPRPRPTENPRP | 0.381
RRIRARPPRLPRPRPRPTERPRP | 0.502
RRIRARPPRLPRPRPRPTGWPRP | 0.756
RRIRARPPRLPRPRPRPTHGPRP | 0.644
RRIRARPPRLPRPRPRPTKHPRP | 0.217
RRIRARPPRLPRPRPRPTMQPRP | 0.418
RRIRARPPRLPRPRPRPTMWPRP | 0.516
RRIRARPPRLPRPRPRPTNCPRP | 0.269
RRIRARPPRLPRPRPRPTQNPRP | 1.05
RRIRARPPRLPRPRPRPTRTPRP | 0.653
RRIRARPPRLPRPRPRPTSCPRP | -0.15
RRIRARPPRLPRPRPRPTSPPRP | 0.292
RRIRARPPRLPRPRPRPTTGPRP | 0.331
RRIRARPPRLPRPRPRPTTKPRP | 0.541
RRIRARPPRLPRPRPRPTTYPRP | -0.0877
RRIRARPPRLPRPRPRPTWHPRP | 0.419
RRIRARPPRLPRPRPRPVCGPRP | 0.653
RRIRARPPRLPRPRPRPVECPRP | 0.0527
RRIRARPPRLPRPRPRPVEGPRP | 0.329

Sequence | shrunken log2 fold change
RRIRARPPRLPRPRPRPVGCPRP | 0.768
RRIRARPPRLPRPRPRPVGIPRP | -0.102
RRIRARPPRLPRPRPRPVHCPRP | 0.0301
RRIRARPPRLPRPRPRPVKFPRP | -0.0699
RRIRARPPRLPRPRPRPVNAPRP | -0.0521
RRIRARPPRLPRPRPRPVNCPRP | 1.04
RRIRARPPRLPRPRPRPVNYPRP | -0.476
RRIRARPPRLPRPRPRPVPLPRP | 0.263
RRIRARPPRLPRPRPRPVPQPRP | 0.271
RRIRARPPRLPRPRPRPVPYPRP | -0.0718
RRIRARPPRLPRPRPRPVQWPRP | 0.546
RRIRARPPRLPRPRPRPVSHPRP | 0.101
RRIRARPPRLPRPRPRPVSSPRP | 0.155
RRIRARPPRLPRPRPRPVVKPRP | 0.298
RRIRARPPRLPRPRPRPVVMPRP | 0.282
RRIRARPPRLPRPRPRPVWPPRP | 0.623
RRIRARPPRLPRPRPRPVWSPRP | 0.197
RRIRARPPRLPRPRPRPVYPPRP | 0.0412
RRIRARPPRLPRPRPRPWAFPRP | 0.222
RRIRARPPRLPRPRPRPWCVPRP | 0.201
RRIRARPPRLPRPRPRPWDFPRP | -0.00352
RRIRARPPRLPRPRPRPWDLPRP | 0.612
RRIRARPPRLPRPRPRPWDSPRP | -0.277
RRIRARPPRLPRPRPRPWDYPRP | 0.00145
RRIRARPPRLPRPRPRPWFDPRP | -0.178

Sequence | shrunken log2 fold change
RRIRARPPRLPRPRPRPWFKPRP | -0.0366
RRIRARPPRLPRPRPRPWGRPRP | 0.198
RRIRARPPRLPRPRPRPWHCPRP | -0.16
RRIRARPPRLPRPRPRPWHWPRP | 0.209
RRIRARPPRLPRPRPRPWIEPRP | -0.105
RRIRARPPRLPRPRPRPWIPPRP | -0.161
RRIRARPPRLPRPRPRPWITPRP | -0.0939
RRIRARPPRLPRPRPRPWKDPRP | -0.0732
RRIRARPPRLPRPRPRPWKGPRP | 0.142
RRIRARPPRLPRPRPRPWKKPRP | -0.0663
RRIRARPPRLPRPRPRPWLEPRP | -0.0344
RRIRARPPRLPRPRPRPWNEPRP | -0.19
RRIRARPPRLPRPRPRPWPIPRP | 0.179
RRIRARPPRLPRPRPRPWSLPRP | -0.181
RRIRARPPRLPRPRPRPWSTPRP | 0.0839
RRIRARPPRLPRPRPRPWTFPRP | -0.0754
RRIRARPPRLPRPRPRPWYNPRP | -0.305
RRIRARPPRLPRPRPRPWYWPRP | 0.0283
RRIRARPPRLPRPRPRPWYYPRP | -0.628
RRIRARPPRLPRPRPRPYARPRP | -0.118
RRIRARPPRLPRPRPRPYAYPRP | 0.104
RRIRARPPRLPRPRPRPYDNPRP | -0.0875
RRIRARPPRLPRPRPRPYFSPRP | -0.624
RRIRARPPRLPRPRPRPYHTPRP | -0.407
RRIRARPPRLPRPRPRPYHWPRP | -0.0767
